Assay results from US20170218064A1 (Stanford University, published 2017).

T1: human neuromedin U (NMU), bioactive processed 25 amino acid form (human, C-terminal amidation (-NH2))
T1 construct: In the serum ELISAs the target is endogenous circulating human NMU; also called human NMU; NMU-25
T1 peptide: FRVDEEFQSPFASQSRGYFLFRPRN

B1: anti-NMU monoclonal antibody C578 (antibody, V domains shown)
VH: EVQLQQSGAELVRSGASVKLSCAASGFNIKDYYIHWVKQRPEQGLEWIGWIDPENGDNECAPKFQGKATMTADTSSNTAYLQLTSLTSEDTAVYYCNAGKGDYWGQGTTLTVSS
VL: NIVMTQSPSSLAMSIGQKVTMSCRSSQSLLNSSNQKNYLAWYQQKPGQSPKLLVYFASTRESGVPARFIGSGSGTDFTLTISSVQAEDLADYFCQQHYSTPFTFGSGTKLEIK
notes: Monoclonal antibody from a mouse hybridoma
B2: anti-NMU monoclonal antibody 2A16 (antibody, V domains shown)
VH: QIQLVQSGPELKKPGETVKISCKASGYTFTKHGMNWMKQAPGKGLKWMGWINTNTGEPTYSEEFKGRFAFSLETSASTAYLQINNLKNEDTATYFCARTGRYGVDYWGKGTSVTVSS
VL: DIQMTQSPSSLSASLGERVSLTCRASQDIGSNLNWIQQEPDGTIKRLIYATSTLDSGVPKRFSGSRSGSDYFLTISSLESEDFVDYYCLQFDSSPLTFGAGTKLELK
notes: as for B1

Target: T1, human neuromedin U (NMU), bioactive …
Assay: not described

| Binder | binding result |
| --- | --- |
| B1 | binds |
| B2 | binds |
